Experimental data published in article PMC13541077.

Target: recombinant soluble PRRSV-1 Olot/91 glycoprotein 3 ectodomain (sGP3) (PRRSV-1 (Betaarterivirus europensis), strain Olot/91)
Experiment: mass photometry; Refeyn MPOne; GP3 at 20 nM in filtered PBS, triplicate; calibrated with BSA, beta-amylase and thyroglobulin

For “recombinant soluble PRRSV-1 Olot/91 glycoprotein 3 ectodomain (sGP3) (domain or fragment)”, the stoichiometry N was 2.
